From article PMC11094025

Assays:
[1] = target: GST-VAPB-MSP (wild-type MSP-domain of VAPB fused to a GST-tag) (UniProt O95292); experiment: peptide pull-down of purified protein, Coomassie gel quantification; details: parent: est. 1.0; read off a plot
[2] = target: VAPB (Vesicle-Associated-membrane Protein-associated protein B), endogenous (UniProt O95292); experiment: peptide pull-down from total HeLa cell lysate, Western blot quantification; details: parent: est. 1.0; read off a plot

In the case of “ELYS FFAT-2 peptide, non-phosphorylated S1314A; S1326A”, the ratio to parent [1] is reported as 1.1 and the ratio to parent [2] is reported as 0.5.
